One assay has as its target α-casein.
On to “transglutaminase preparation (culture broth) of Myrothecium roridum (pool or library)”, for which the Units/ml (putrescine assay) came to 0.13 Units/ml.

On to “transglutaminase preparation (culture broth) of Neosartorya quadricineta (pool or library)”, for which the Units/ml (putrescine assay) is 0.22 Units/ml.

For “transglutaminase preparation (culture broth) of Nidula sp. (pool or library)”, the Units/ml (putrescine assay) was 0.14 Units/ml.

In turn, “transglutaminase preparation (culture broth) of Nodulisporium sp. (pool or library)” gave a Units/ml (putrescine assay) of 1.2 Units/ml.

Substance “transglutaminase preparation (culture broth) of Panaeolus papilionaceus (pool or library)” yielded a Units/ml (putrescine assay) of 0.15 Units/ml.

The substance “transglutaminase preparation (culture broth) of Pholiota jahnii (pool or library)” came in with a Units/ml (putrescine assay) of 0.21 Units/ml.

In the case of “transglutaminase preparation (culture broth) of Pleurotus dryinus (pool or library)”, the Units/ml (putrescine assay) worked out at 0.22 Units/ml.

Turning to “transglutaminase preparation (culture broth) of Pleurotus sp. (pool or library)”, the Units/ml (putrescine assay) is 2.36 Units/ml.

“transglutaminase preparation (culture broth) of Podospora tetraspora (pool or library)” registered a Units/ml (putrescine assay) of 0.3 Units/ml.

Substance “transglutaminase preparation (culture broth) of Preussia isomera (pool or library)” returned a Units/ml (putrescine assay) of 0.22 Units/ml.

Regarding “transglutaminase preparation (culture broth) of Psathyrella condolleana (pool or library)”, the Units/ml (putrescine assay) is 0.19 Units/ml.

“transglutaminase preparation (culture broth) of Pycnoporus cinnabarinus (pool or library)”: the Units/ml (putrescine assay) worked out at 0.14 Units/ml.

“transglutaminase preparation (culture broth) of Rhizoctonia solani (pool or library)” returned a Units/ml (putrescine assay) of 0.17 Units/ml.

“transglutaminase preparation (culture broth) of Savoryella lignicola (pool or library)”: the Units/ml (putrescine assay) worked out at 6.24 Units/ml.

Substance “transglutaminase preparation (culture broth) of Scytinostroma portentosum (pool or library)” yielded a Units/ml (putrescine assay) of 0.14 Units/ml.

“transglutaminase preparation (culture broth) of Sporormiella australis (pool or library)” yielded a Units/ml (putrescine assay) of 0.13 Units/ml.

Consider “transglutaminase preparation (culture broth) of Sporormiella minima (pool or library)”, for which the Units/ml (putrescine assay) stood at 0.2 Units/ml.

Take “transglutaminase preparation (culture broth) of Stropharia coerulea (pool or library)”: the Units/ml (putrescine assay) is 0.16 Units/ml.

Consider “transglutaminase preparation (culture broth) of Talaromyces helicus (pool or library)”, for which the Units/ml (putrescine assay) amounted to 0.23 Units/ml.

With “transglutaminase preparation (culture broth) of Trametes hirsuta (pool or library)”, the Units/ml (putrescine assay) amounted to 0.21 Units/ml.

With “transglutaminase preparation (culture broth) of Trichoderma harzianum (pool or library)”, the Units/ml (putrescine assay) came out at 0.25 Units/ml.

Turning to “transglutaminase preparation (culture broth) of Tricholoma flavovirens (pool or library)”, the Units/ml (putrescine assay) turned out to be 0.16 Units/ml.

“transglutaminase preparation (culture broth) of Tricholoma myomyces (pool or library)”: the Units/ml (putrescine assay) was 0.23 Units/ml.

In the case of “transglutaminase preparation (culture broth) of Valsa pini (pool or library)”, the Units/ml (putrescine assay) worked out at 0.73 Units/ml.

The substance “transglutaminase preparation (culture broth) of Warcupiella spinulosa (pool or library)” returned a Units/ml (putrescine assay) of 0.41 Units/ml.

Turning to “transglutaminase preparation (culture broth) of Xylaria sp (pool or library)”, the Units/ml (putrescine assay) turned out to be 0.28 Units/ml.

A further assay deals with α-casein. This is another data set of the same source.
Turning to “Ca2+-independent transglutaminase from Streptomyces platensis (enzyme)”, the Units/ml (putrescine assay) stood at 1.4 units/ml.

“TGase sample of B. amyloliquefaciens (pool or library)” yielded a Units/ml (putrescine assay) of 0.06 units/ml.

Take “TGase sample of Bacillus aneurinolyticus (pool or library)”: the Units/ml (putrescine assay) was determined as 0.8 units/ml.

On to “TGase sample of Bacillus badius (pool or library)”, for which the Units/ml (putrescine assay) is 0.8 units/ml.

“TGase sample of Bacillus firmus, ATCC 17060 (pool or library)” yielded a Units/ml (putrescine assay) of 0.6 units/ml.

Substance “TGase sample of Bacillus firmus, DSM 12 (pool or library)” returned a Units/ml (putrescine assay) of 0.03 units/ml.

Consider “TGase sample of Bacillus megaterium, AJ 3355 (pool or library)”, for which the Units/ml (putrescine assay) worked out at 0.03 units/ml.

Substance “TGase sample of Bacillus megaterium, ATCC 13632 (pool or library)” returned a Units/ml (putrescine assay) of 0.02 units/ml.

Turning to “TGase sample of Bacillus megaterium, ATCC 15450 (pool or library)”, the Units/ml (putrescine assay) amounted to 0.02 units/ml.

Regarding “TGase sample of Bacillus mycoides (pool or library)”, the Units/ml (putrescine assay) amounted to 0.4 units/ml.

Substance “TGase sample of Bacillus sp., ATCC 21537 (pool or library)” showed a Units/ml (putrescine assay) of 0.1 units/ml.

Substance “TGase sample of Bacteridium sp., CBS 495.74 (pool or library)” came in with a Units/ml (putrescine assay) of 0.5 units/ml.

The substance “TGase sample of Bacteridium sp., DSM 10093 (pool or library)” displayed a Units/ml (putrescine assay) of 0.3 units/ml.

For “TGase sample of Hafnia alvei (pool or library)”, the Units/ml (putrescine assay) was 0.3 units/ml.

In turn, “TGase sample of Hydrogenophaga palleroni (Basonym: Pseudomonas palleroni) (pool or library)” showed a Units/ml (putrescine assay) of 0.6 units/ml.

“TGase sample of Kitasatao purpurea (pool or library)” had a Units/ml (putrescine assay) of 0.3 units/ml.

Turning to “TGase sample of Pseudomonas amyloderamosa (pool or library)”, the Units/ml (putrescine assay) came to 0.08 units/ml.

“TGase sample of Pseudomonas putida, DSM 1693 (pool or library)” gave a Units/ml (putrescine assay) of 0.84 units/ml.

As to “TGase sample of Pseudomonas putida, NCIMB 9869 (pool or library)”, the Units/ml (putrescine assay) came to 1.4 units/ml.

Regarding “TGase sample of Rothia dentocariosa (pool or library)”, the Units/ml (putrescine assay) is 0.9 units/ml.

In turn, “TGase sample of Streptomyces nigrescens (pool or library)” came in with a Units/ml (putrescine assay) of 0.3 units/ml.

On to “TGase sample of Streptomyces sioyaensis (pool or library)”, for which the Units/ml (putrescine assay) is 3.3 units/ml.

As to “TGase sample of Zymomonas mobilis (pool or library)”, the Units/ml (putrescine assay) was 0.36 units/ml.

Substance “transglutaminase from Streptomyces lydicus, NRRL B-3446 (former Streptomyces libani) (enzyme)” gave a Units/ml (putrescine assay) of 1.3 units/ml.
